The values that follow come from patent US20140294825A1 (JN BIOSCIENCES, published 2014).

Assay [1] concerns the target T1, human FcRn (human, UniProt P55899 24-365; P61769 21-119).
T1 construct: whole, on cells; Heterodimer stably expressed on the surface of NS0 cells; also called neonatal Fc receptor; NS0/FcRn cells
Put plainly: flow cytometry on NS0 cells expressing human FcRn, 1 µg/ml antibody, pH 6.0 and 7.5. The procedure:
(§1) The ability of Ch9G6-IgG1, Ch9G6-IgG1/M and Ch9G6-MVIgG1 antibodies to bind to FcRn in a pH-dependent manner was analyzed by flow cytometry using NS0 cells expressing human FcRn on the cell surface (NS0/FcRn cells). NS0/FcRn transfectants stably expressing human FcRn, a heterodimer composed of the FcRn α chain and β2-microglubulin, on the cell surface was generated following the general procedure described by Hinton et al. (J. Biol. Chem. 279:6213-6216 2004), which is incorporated herein by reference. Ch9G6-IgG1, Ch9G6-IgG1/M and Ch9G6-MVIgG1 at 1 μg/ml were separately incubated with NS0/FcRn cells at pH 6.0 and 7.5 at the primary staining step following the procedure described by Hinton et al. (supra). Antibodies binding to FcRn were detected using PE-labeled goat polyclonal anti-human gamma chain antibody (for Ch9G6-IgG1 and no antibody control) or PE-labeled goat polyclonal anti-human μ chain antibody (for Ch9G6-IgG1/M, Ch9G6-MVIgG1 and no antibody control) at the secondary staining step.
The ability of Ch9G6-IgG3D, Ch9G6-IgG3D/M and Ch9G6-MVIgG3D antibodies to bind to FcRn in a pH-dependent manner was analyzed by flow cytometry using NS0 cells expressing human FcRn on the cell surface (NS0/FcRn cells). Ch9G6-IgG3D, Ch9G6-Ig3D/M and Ch9G6-MVIgG3D at 1 μg/ml were separately incubated with NS0/FcRn cells at pH 6.0 and 7.5 at the primary staining step as described in Example 4. Antibodies binding to FcRn were detected using PE-labeled goat polyclonal anti-human gamma chain antibody (for Ch9G6-IgG3D and no antibody control) or PE-labeled goat polyclonal anti-human μ chain antibody (for Ch9G6-IgG3D/M, Ch9G6-MVIgG3D and no antibody control) at the secondary staining step.
In general terms: In flow cytometry, cells or beads pass a laser one at a time.

The target in assay [2] is T2, recombinant human CD30 extracellular region fused at the C-terminus to the human λ2 constant region (human).
T2 construct: Cysteine at the second position from the carboxyl terminus of the constant region changed to serine; also called CD30-Cλ
Put plainly: bridging ELISA: CD79a-Fc coated, supernatant, then CD30-Cλ in solution, anti-human λ chain HRP detection; no signal means the anti-CD79a antibody did not hold CD30-Cλ. Background: ELISA stands for enzyme-linked immunosorbent assay.

The target in assay [3] is T3, recombinant human CD30 extracellular region fused at the C-terminus to the Fc region of human γ1 chain (human).
T3 construct: also called CD30-Fc
In words: bridging ELISA: CD30-Fc coated, supernatant, then CD79a-Cλ in solution, anti-human λ chain HRP detection; no signal means the anti-CD79a antibody was not captured on CD30-Fc.

Assay [4] deals with T1, human FcRn. Put plainly: flow cytometry on NS0 cells expressing human FcRn, pH 6.0 and 7.5, PE anti-human µ chain detection. How it is done:
as §1, with “Ch9G6-IgG1, Ch9G6-IgG1/M and Ch9G6-MVIgG1 at 1 μg/ml were separately incubated with NS0/FcRn cells at pH 6.0 and 7.5 at the primary staining step following the procedure described by Hinton et al. (supra).” left out
The ability of Ch9G6-IgG3D, Ch9G6-IgG3D/M and Ch9G6-MVIgG3D antibodies to bind to FcRn in a pH-dependent manner was analyzed by flow cytometry using NS0 cells expressing human FcRn on the cell surface (NS0/FcRn cells). […] Antibodies binding to FcRn were detected using PE-labeled goat polyclonal anti-human gamma chain antibody (for Ch9G6-IgG3D and no antibody control) or PE-labeled goat polyclonal anti-human μ chain antibody (for Ch9G6-IgG3D/M, Ch9G6-MVIgG3D and no antibody control) at the secondary staining step.

Another assay concerns the target T4, human CD16 (human, UniProt P08637 17-254).
T4 construct: whole, on cells; also called Fcγ receptor type III
In words: flow cytometry on HEK293 cells transiently expressing human CD16, PE anti-human µ heavy chain detection.

A further assay addresses T5, Protein G (Streptococcal, UniProt P19909 303-497).
T5 construct: Commercial resin; also called Protein G Sepharose column
In words: Protein G Sepharose column, culture supernatant.

T1 sequence (P55899 24-365, chain 1 of 2): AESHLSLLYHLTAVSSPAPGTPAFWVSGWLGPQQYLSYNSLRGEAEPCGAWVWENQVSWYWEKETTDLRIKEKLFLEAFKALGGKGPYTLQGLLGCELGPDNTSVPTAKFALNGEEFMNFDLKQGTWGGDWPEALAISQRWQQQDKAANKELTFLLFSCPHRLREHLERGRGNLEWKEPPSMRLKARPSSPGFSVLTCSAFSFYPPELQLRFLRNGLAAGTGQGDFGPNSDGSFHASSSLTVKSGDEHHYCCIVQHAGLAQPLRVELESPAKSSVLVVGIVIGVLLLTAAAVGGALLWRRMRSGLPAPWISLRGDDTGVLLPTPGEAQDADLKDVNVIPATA
T1 sequence (P61769 21-119, chain 2 of 2): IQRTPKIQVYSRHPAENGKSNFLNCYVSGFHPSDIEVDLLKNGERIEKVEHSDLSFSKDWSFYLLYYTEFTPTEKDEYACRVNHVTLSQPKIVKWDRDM
T2 sequence (chain, as listed by the source limits assumed): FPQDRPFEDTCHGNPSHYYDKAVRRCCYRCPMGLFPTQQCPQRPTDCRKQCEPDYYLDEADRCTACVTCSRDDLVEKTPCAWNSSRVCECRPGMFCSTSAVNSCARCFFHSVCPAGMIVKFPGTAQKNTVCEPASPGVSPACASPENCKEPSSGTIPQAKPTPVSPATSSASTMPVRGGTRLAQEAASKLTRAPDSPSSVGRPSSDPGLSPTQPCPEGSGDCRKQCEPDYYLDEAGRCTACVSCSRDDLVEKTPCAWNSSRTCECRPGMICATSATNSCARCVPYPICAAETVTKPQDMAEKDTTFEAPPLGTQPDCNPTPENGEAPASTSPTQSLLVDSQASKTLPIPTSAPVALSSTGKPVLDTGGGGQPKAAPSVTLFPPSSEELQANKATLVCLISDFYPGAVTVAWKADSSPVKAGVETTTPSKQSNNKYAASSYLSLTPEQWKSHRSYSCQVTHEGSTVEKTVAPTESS
T4 sequence (P08637 17-254): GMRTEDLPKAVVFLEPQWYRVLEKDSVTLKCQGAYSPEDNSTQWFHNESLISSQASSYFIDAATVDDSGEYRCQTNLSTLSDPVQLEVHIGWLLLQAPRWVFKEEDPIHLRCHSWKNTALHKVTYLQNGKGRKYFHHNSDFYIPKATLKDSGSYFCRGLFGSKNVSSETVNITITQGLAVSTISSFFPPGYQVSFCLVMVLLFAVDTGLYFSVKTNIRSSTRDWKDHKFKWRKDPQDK
T3 sequence (chain, as listed by the source limits assumed): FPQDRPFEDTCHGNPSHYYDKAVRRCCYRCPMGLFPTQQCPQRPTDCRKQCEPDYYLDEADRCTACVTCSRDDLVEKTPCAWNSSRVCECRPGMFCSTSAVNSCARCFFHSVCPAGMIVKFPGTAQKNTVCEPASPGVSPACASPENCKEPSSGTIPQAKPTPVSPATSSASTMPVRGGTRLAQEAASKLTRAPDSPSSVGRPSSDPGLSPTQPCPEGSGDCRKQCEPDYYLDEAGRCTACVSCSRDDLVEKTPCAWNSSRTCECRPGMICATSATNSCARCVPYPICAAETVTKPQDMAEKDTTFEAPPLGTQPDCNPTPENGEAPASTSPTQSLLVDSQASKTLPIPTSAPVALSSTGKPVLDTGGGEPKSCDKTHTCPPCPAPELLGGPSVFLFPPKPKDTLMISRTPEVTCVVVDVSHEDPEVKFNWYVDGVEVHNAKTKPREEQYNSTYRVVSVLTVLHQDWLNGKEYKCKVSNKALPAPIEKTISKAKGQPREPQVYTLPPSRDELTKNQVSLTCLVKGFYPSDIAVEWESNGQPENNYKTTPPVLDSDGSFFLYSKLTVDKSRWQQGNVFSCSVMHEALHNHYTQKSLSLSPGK
T5 sequence (P19909 303-497): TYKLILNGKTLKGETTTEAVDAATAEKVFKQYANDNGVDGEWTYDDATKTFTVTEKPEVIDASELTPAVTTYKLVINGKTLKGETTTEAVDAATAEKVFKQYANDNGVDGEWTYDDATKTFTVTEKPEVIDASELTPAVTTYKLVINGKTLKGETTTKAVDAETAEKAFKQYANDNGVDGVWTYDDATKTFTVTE

B1: Ch9G6-MVIgG3D (antibody)
heavy: QVQLQQSGPELVKPGASVKISCKASGYTFSTSWMNWVKQRPGQGLEWIGRIYPGDGDTNYNGKFKGKATLTADKSSNTAYMQLSSLTSVDSAVYFCERFYYGNTFAMDYWGQGTSVTVSSASTKGPSVFPLAPCSRSTSGGTAALGCLVKDYFPEPVTVSWNSGALTSGVHTFPAVLQSSGLYSLSSVVTVPSSSLGTQTYTCNVNHKPSNTKVDKRVEPKSCDTPPPCPRCPAPELLGGPSVFLFPPKPKDTLMISRTPEVTCVVVDVSHEDPEVQFKWYVDGVEVHNAKTKPREEQYNSTFRVVSVLTVLHQDWLNGKEYKCKVSNKALPAPIEKTISKTKGQPREPQVYTLPPSREEMTKNQVSLTCLVKGFYPSDIAVEWESSGQPENNYNTTPPMLDSDGSFFLYSKLTVDKSRWQQGNIFSCSVMHEALHNRFTQKSLSLSPGKDQDTAIRVFAIPPSFASIFLTKSTKLTCLVTDLTTYDSVTISWTRQNGEAVKTHTNISESHPNATFSAVGEASICEDDWNSGERFTCTVTHTDLPSPLKQTISRPKGVALHRPDVYLLPPAREQLNLRESATITCLVTGFSPADVFVQWMQRGQPLSPEKYVTSAPMPEPQAPGRYFAHSILTVSEEEWNTGETYTCVVAHEALPNRVTERTVDKSTGKPTLYNVSLVMSDTAGTCY
light: DVLMTQIPLSLPVSLGDQASISCRSSQSIVHSNGNTYLEWYLQKPGQSPKLLIYKVSNRFSGVPDRFSGSGSGTDFTLKISRVEAEDLGVYYCFQGSHVPFTFGSGTKLEIKRTVAAPSVFIFPPSDEQLKSGTASVVCLLNNFYPREAKVQWKVDNALQSGNSQESVTEQDSKDSTYSLSSTLTLSKADYEKHKVYACEVTHQGLSSPVTKSFNRGEC
notes: Pentamer or hexamer of the H2L2 unit in native form (NS0 cells, Protein G purified); also called multivalent IgG3 antibody
With B1, the binding result with human FcRn [1] was “binds”.

B2: Ch9G6-MVIgG1 (antibody)
heavy: not shown
light: DVLMTQIPLSLPVSLGDQASISCRSSQSIVHSNGNTYLEWYLQKPGQSPKLLIYKVSNRFSGVPDRFSGSGSGTDFTLKISRVEAEDLGVYYCFQGSHVPFTFGSGTKLEIKRTVAAPSVFIFPPSDEQLKSGTASVVCLLNNFYPREAKVQWKVDNALQSGNSQESVTEQDSKDSTYSLSSTLTLSKADYEKHKVYACEVTHQGLSSPVTKSFNRGEC
notes: also called multivalent anti-CD79a IgG1 antibody
On to B2, for which the binding result was “no binding” in assay [2], “no binding” in assay [3] and “binds” in the assay with human FcRn [1].

B3: Ch9G6-IgG3D (antibody)
heavy: QVQLQQSGPELVKPGASVKISCKASGYTFSTSWMNWVKQRPGQGLEWIGRIYPGDGDTNYNGKFKGKATLTADKSSNTAYMQLSSLTSVDSAVYFCERFYYGNTFAMDYWGQGTSVTVSSASTKGPSVFPLAPCSRSTSGGTAALGCLVKDYFPEPVTVSWNSGALTSGVHTFPAVLQSSGLYSLSSVVTVPSSSLGTQTYTCNVNHKPSNTKVDKRVEPKSCDTPPPCPRCPAPELLGGPSVFLFPPKPKDTLMISRTPEVTCVVVDVSHEDPEVQFKWYVDGVEVHNAKTKPREEQYNSTFRVVSVLTVLHQDWLNGKEYKCKVSNKALPAPIEKTISKTKGQPREPQVYTLPPSREEMTKNQVSLTCLVKGFYPSDIAVEWESSGQPENNYNTTPPMLDSDGSFFLYSKLTVDKSRWQQGNIFSCSVMHEALHNRFTQKSLSLSPGK
light: DVLMTQIPLSLPVSLGDQASISCRSSQSIVHSNGNTYLEWYLQKPGQSPKLLIYKVSNRFSGVPDRFSGSGSGTDFTLKISRVEAEDLGVYYCFQGSHVPFTFGSGTKLEIKRTVAAPSVFIFPPSDEQLKSGTASVVCLLNNFYPREAKVQWKVDNALQSGNSQESVTEQDSKDSTYSLSSTLTLSKADYEKHKVYACEVTHQGLSSPVTKSFNRGEC
notes: NS0 cells, Protein G purified; monomer of about 150 kDa; also called chimeric anti-CD79a IgG3 monoclonal antibody (first, second and third hinge regions eliminated)
Regarding B3, in the assay with human FcRn [1], the binding result is recorded as “binds”.

B4: Ch9G6-IgG1 (antibody)
heavy: not shown
light: DVLMTQIPLSLPVSLGDQASISCRSSQSIVHSNGNTYLEWYLQKPGQSPKLLIYKVSNRFSGVPDRFSGSGSGTDFTLKISRVEAEDLGVYYCFQGSHVPFTFGSGTKLEIKRTVAAPSVFIFPPSDEQLKSGTASVVCLLNNFYPREAKVQWKVDNALQSGNSQESVTEQDSKDSTYSLSSTLTLSKADYEKHKVYACEVTHQGLSSPVTKSFNRGEC
notes: also called chimeric IgG1 form of the mouse anti-human CD79a monoclonal antibody 9G6
For B4, in the assay with human FcRn [1], the binding result is “binds”.

B5: Ch9G6-IgG3D/M (antibody)
heavy: QVQLQQSGPELVKPGASVKISCKASGYTFSTSWMNWVKQRPGQGLEWIGRIYPGDGDTNYNGKFKGKATLTADKSSNTAYMQLSSLTSVDSAVYFCERFYYGNTFAMDYWGQGTSVTVSSASTKGPSVFPLAPCSRSTSGGTAALGCLVKDYFPEPVTVSWNSGALTSGVHTFPAVLQSSGLYSLSSVVTVPSSSLGTQTYTCNVNHKPSNTKVDKRVEPKSCDTPPPCPRCPDQDTAIRVFAIPPSFASIFLTKSTKLTCLVTDLTTYDSVTISWTRQNGEAVKTHTNISESHPNATFSAVGEASICEDDWNSGERFTCTVTHTDLPSPLKQTISRPKGVALHRPDVYLLPPAREQLNLRESATITCLVTGFSPADVFVQWMQRGQPLSPEKYVTSAPMPEPQAPGRYFAHSILTVSEEEWNTGETYTCVVAHEALPNRVTERTVDKSTGKPTLYNVSLVMSDTAGTCY
light: DVLMTQIPLSLPVSLGDQASISCRSSQSIVHSNGNTYLEWYLQKPGQSPKLLIYKVSNRFSGVPDRFSGSGSGTDFTLKISRVEAEDLGVYYCFQGSHVPFTFGSGTKLEIKRTVAAPSVFIFPPSDEQLKSGTASVVCLLNNFYPREAKVQWKVDNALQSGNSQESVTEQDSKDSTYSLSSTLTLSKADYEKHKVYACEVTHQGLSSPVTKSFNRGEC
notes: NS0 cells, purified on anti-human IgM agarose; mixture of species (650, 180, 90 kDa peaks); also called Ch9G6-Ig3D/M
Regarding B5, the binding result with human FcRn [4] is “no binding (tested: 1 µg/ml)”; with human CD16 it was “no binding (tested: 1 µg/ml)”; with Protein G, “no binding”.
